T1: cynomolgus TF ECD-His6 (cynomolgus monkey (Macaca fascicularis))
T1 construct: made in Expi293 cells; also called TF-His; cTF
T1 chain: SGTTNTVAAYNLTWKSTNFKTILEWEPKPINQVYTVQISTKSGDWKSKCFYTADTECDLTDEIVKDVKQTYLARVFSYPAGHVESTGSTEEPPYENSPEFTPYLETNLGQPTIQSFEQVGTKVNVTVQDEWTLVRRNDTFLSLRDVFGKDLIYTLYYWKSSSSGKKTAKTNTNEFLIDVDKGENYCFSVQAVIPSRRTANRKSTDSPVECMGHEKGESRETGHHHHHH

T2: pig TF-His (pig (Sus scrofa))
T2 construct: also called pig TF ECD-His; pTF
T2 chain: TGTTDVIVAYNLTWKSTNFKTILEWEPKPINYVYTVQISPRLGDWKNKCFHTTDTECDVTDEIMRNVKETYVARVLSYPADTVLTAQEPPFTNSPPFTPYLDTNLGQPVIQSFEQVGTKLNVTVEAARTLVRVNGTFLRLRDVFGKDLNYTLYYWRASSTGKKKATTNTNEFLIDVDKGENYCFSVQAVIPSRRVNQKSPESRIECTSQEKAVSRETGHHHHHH


How the values were obtained:
human TF ECD-His6 [1] = target: T3, human TF ECD-His6 (human, UniProt P13726 33-251); experiment: BLI (ForteBio Octet)
T3 construct: made in Expi293 cells; the entry holds the ECD with the C-terminal TG-His6; also called TF-His; hTF

cynomolgus TF ECD-His6 [2] = target: T1, cynomolgus TF ECD-His6; experiment: BLI (ForteBio Octet)
relipidated TF [3] = target: T4, relipidated TF (UniProt P13726 33-295, limits assumed); experiment: cell-based or functional assay
[4] = target: rTF (rat TF) on HEK293 cells (rat, UniProt P42533 29-252); experiment: live cell staining of transfected HEK293, flow cytometry
Chain of rTF (rat TF) on HEK293 cells (P42533 29-252): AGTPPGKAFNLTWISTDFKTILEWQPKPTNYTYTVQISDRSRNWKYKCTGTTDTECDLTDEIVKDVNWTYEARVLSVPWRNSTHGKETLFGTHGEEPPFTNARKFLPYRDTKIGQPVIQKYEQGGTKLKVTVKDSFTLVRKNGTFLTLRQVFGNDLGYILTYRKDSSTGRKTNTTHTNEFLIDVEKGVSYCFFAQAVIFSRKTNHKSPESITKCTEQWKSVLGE

human TF ECD-His6 [5] = target: T3, human TF ECD-His6; experiment: SPR (Biacore), antibody on chip, TF-His titrated
cynomolgus TF ECD-His6 [6] = target: T1, cynomolgus TF ECD-His6; experiment: SPR (Biacore), antibody on chip, TF-His titrated
relipidated TF [7] = target: T4, relipidated TF; experiment: cell-based or functional assay; remark: listed apart in the source
mouse TF ECD-His6 = target: T5, mouse TF ECD-His6 (mouse, UniProt P20352 29-251); experiment: BLI (ForteBio Octet)
T5 construct: made in Expi293 cells; also called TF-His; mTF

pig TF-His = target: T2, pig TF-His; experiment: SPR (Biacore), antibody captured by anti-human IgG on CM5 chip, pig TF-His in solution, 1:1 model

Binder | Kd (human TF ECD-His6 [1]) | Kd (cynomolgus TF ECD-His6 [2]) | binding result [4] | Kd (human TF ECD-His6 [5]) | Kd (cynomolgus TF ECD-His6 [6]) | Kd (mouse TF ECD-His6) | also measured
1F (antibody, human IgG1, V domains shown, human IgG1) VH: EVQLLESGGGLVQPGGSLRLSCAASGFTFSDYAMGWVRQAPGKGLEWVSTISGSGGLTYYADSVKGRFTISRDNSKNTLYLQMNSLRAEDTAVYYCAKAPYGYYMDVWGKGTTVTVSS VL: not shown | 1.28 nM | 1.43 nM | no binding (tested: 15 µg/ml (100 nM)) | 0.31 nM | 0.26 nM |  | TGA without pre-incubation, 10 nM Ab: % ETP (relipidated TF [3]): 58%; TGA without pre-incubation, 10 nM Ab: % Peak IIa (relipidated TF [3]): 21%; TGA without pre-incubation, 10 nM Ab: ETP (relipidated TF [3]): 1400 nM·min; TGA without pre-incubation, 10 nM Ab: Lag Time (relipidated TF [3]): 12.1 min; TGA without pre-incubation, 10 nM Ab: Peak IIa (relipidated TF [3]): 83 nM; TGA without pre-incubation, 10 nM Ab: ttPeak (relipidated TF [3]): 19.8 min; TGA without pre-incubation, 50 nM Ab: % Peak IIa (relipidated TF [3]): 8%; TGA without pre-incubation, 50 nM Ab: Lag Time (relipidated TF [3]): 27.2 min; TGA without pre-incubation, 50 nM Ab: Peak IIa (relipidated TF [3]): 32 nM; TGA without pre-incubation, 50 nM Ab: ttPeak (relipidated TF [3]): 36.8 min; TGA without pre-incubation, 100 nM Ab: % Peak IIa (relipidated TF [3]): 7%; TGA without pre-incubation, 100 nM Ab: Lag Time (relipidated TF [3]): 25.9 min; TGA without pre-incubation, 100 nM Ab: Peak IIa (relipidated TF [3]): 29 nM; TGA without pre-incubation, 100 nM Ab: ttPeak (relipidated TF [3]): 37.9 min; decrease of peak IIa concentration, TGA with 10 min pre-incubation, 100 nM Ab (relipidated TF [7]): 93%; decrease of peak IIa concentration, TGA without pre-incubation, 100 nM Ab (relipidated TF [7]): 92%
5G9 (antibody, V domains shown) VH: QVQLVESGGGVVQPGRSLRLSCKASGFNIKDYYMHWVRQAPGKGLEWIGLIDPENGNTIYDPKFQGRFTISADNSKNTLFLQMDSLRPEDTAVYYCARDNSYYFDYWGQGTPVTVSS VL: DIQMTQSPSSLSASVGDRVTITCKASQDIRKYLNWYQQKPGKAPKLLIYYATSLADGVPSRFSGSGSGTDYTFTISSLQPEDIATYYCLQHGESPYTFGQGTKLEIT |  |  |  |  |  |  | decrease of peak IIa concentration, TGA with 10 min pre-incubation, 100 nM Ab (relipidated TF [7]): 92%; decrease of peak IIa concentration, TGA without pre-incubation, 100 nM Ab (relipidated TF [7]): 92%
25A5 (antibody, human IgG1, kappa, V domains shown, human IgG1) VH: QVQLVQSGAEVKKPGASVKVSCKASGYTFDVYGISWVRQAPGQGLEWMGWIAPYSGNTNYAQKLQGRVTMTTDTSTSTAYMELRSLRSDDTAVYYCARDAGTYSPFGYGMDVWGQGTTVTVSS VL: DIQMTQSPSTLSASVGDRVTITCRASESISNWLAWYQQKPGKAPKLLIYKAYSLEYGVPSRFSGSGSGTEFTLTISSLQPDDFATYYCQQFQKLPPFTFGGGTKVEIKR | 0.64 nM |  |  | 0.08 nM | 0.04 nM | 188 nM | 
25G (antibody, human IgG1, kappa, V domains shown, human IgG1) VH: QVQLVQSGAEVKKPGASVKVSCKASGYTFRSYGISWVRQAPGQGLEWMGWVAPYNGNTNYAQKLQGRVTMTTDTSTSTAYMELRSLRSDDTAVYYCARDAGTYSPYGYGMDVWGQGTTVTVSS VL: DIQMTQSPSTLSASVGDRVTITCRASQSISSWLAWYQQKPGKAPKLLIYKASSLESGVPSRFSGSGSGTEFTLTISSLQPDDFATYYCQQFQSLPPFTFGGGTKVEIKR | 21.9 nM | 17.5 nM |  | 23 nM | 18 nM | 114 nM | 
25A5-T (antibody, human IgG1, kappa, V domains shown, human IgG1) VH: QVQLVQSGAEVKKPGASVKVSCKASGYTFDAYGISWVRQAPGQGLEWMGWIAPYSGNTNYAQKLQGRVTMTTDTSTSTAYMELRSLRSDDTAVYYCARDAGTYSPFGYGMDVWGQGTTVTVSS VL: DIQMTQSPSTLSASVGDRVTITCRASESISNWLAWYQQKPGKAPKLLIYKAYSLEYGVPSRFSGSGSGTEFTLTISSLQPDDFATYYCQQFQKLPPFTFGGGTKVEIKR |  |  | no binding (tested: 15 µg/ml (100 nM)) |  |  |  | 
25A3 (antibody, human IgG1, kappa, V domains shown, Human IgG1; also called antibody 25A3) VH: QVQLVQSGAEVKKPGASVKVSCKASGYTFDVYGISWVRQAPGQGLEWMGWIAPYSGNTNYAQKLQGRVTMTTDTSTSTAYMELRSLRSDDTAVYYCARDAGTYSPFGYGMDVWGQGTTVTVSS VL: DIQMTQSPSTLSASVGDRVTITCQASQSINNWLAWYQQKPGKAPKLLIYKAYNLESGVPSRFSGSGSGTEFTLTISSLQPDDFATYYCQLFQSLPPFTFGGGTKVEIKR |  |  |  |  |  |  | Kd (pig TF-His): 5.5 nM
TF-011 (antibody, V domains shown, previously described anti-TF antibody) VH: EVQLLESGGGLVQPGGSLRLSCAASGFTFSNYAMSWVRQAPGKGLEWVSSISGSGDYTYYTDSVKGRFTISRDNSKNTLYLQMNSLRAEDTAVYYCARSPWGYYLDSWGQGTLVTVSS VL: DIQMTQSPPSLSASAGDRVTITCRASQGISSRLAWYQQKPEKAPKSLIYAASSLQSGVPSRFSGSGSGTDFTLTISSLQPEDFATYYCQQYNSYPYTFGQGTKLEIK |  |  | no binding (tested: 15 µg/ml (100 nM)) |  |  |  | decrease of peak IIa concentration, TGA with 10 min pre-incubation, 100 nM Ab (relipidated TF [7]): 91%; decrease of peak IIa concentration, TGA without pre-incubation, 100 nM Ab (relipidated TF [7]): 91%
29E (antibody, human IgG1, V domains shown, human IgG1) VH: QVQLVESGGGVVQPGRSLRLSCAASGFTFRSYGMHWVRQAPGKGLEWVAVITYDGINKYYADSVEGRFTISRDNSKNTLYLQMNSLRAEDTAVYYCARDGVYYGVYDYWGQGTLVTVSS VL: not shown | 2.32 nM | 15 nM | no binding (tested: 15 µg/ml (100 nM)) | 0.47 nM | 5.06 nM |  | 
43B (antibody, human IgG1, V domains shown, human IgG1) VH: QVQLQESGPGLVKPSQTLSLTCTVSGGSISSGQYWSWIRQHPGKGLEWIGEIYYSGSTRYNPSLKSRVTISVDTSKNQFSLKLSSVTAADTAVYYCARDAPYYYGGGYYYYMDVWGKGTTVTVSS VL: EIVLTQSPGTLSLSPGERATLSCRASQSVSSSYLAWYQQKPGQAPRLLIYGASSRATGIPDRFSGSGSGTDFTLTISRLEPEDFAVYYCQQVGVVPYTFGGGTKVEIK | 2.4 nM | 3.4 nM |  | 1.75 nM | 5.64 nM | 161 nM | 
43D (antibody, human IgG1, V domains shown, human IgG1) VH: QVQLQQWGAGLLKPSETLSLTCAVYGGSLSGYYWSWIRQPPGKGLEWIGEIGASGSTRYNPSLKSRVTISVDTSKNQFSLKLSSVTAADTAVYYCARDTPYYYEGGYYYYMDVWGKGTTVTVSS VL: EIVLTQSPGTLSLSPGERATLSCRASQSVSSSYLAWYQQKPGQAPRLLIYGASSRATGIPDRFSGSGSGTDFTLTISRLEPEDFAVYYCQQVGVVPYTFGGGTKVEIK | 3.84 nM | 4.12 nM |  | 2.09 nM | 5.66 nM | 281 nM | 
43B7 (antibody, human IgG1, V domains shown, human IgG1) VH: QVQLQESGPGLVKPSQTLSLTCTVSGGSISSGQYWSWIRQHPGKGLEWIGEIYYSGSTRYNPSLKSRVTISVDTSKNQFSLKLSSVTAADTAVYYCARDAPYYYGGGYYYYMDVWGKGTTVTVSS VL: EIVLTQSPGTLSLSPGERATLSCRASESVDSSYLAWYQQKPGQAPRLLIYGADSRATGIPDRFSGSGSGTDFTLTISRLEPEDFAVYYCQQDGVVPYTFGGGTKVEIK | 0.86 nM | 0.94 nM |  | 0.14 nM | 0.24 nM | 360 nM | 
54E (antibody, human IgG1, V domains shown, human IgG1) VH: QVQLVQSGAEVKKPGASVKVSCKASGYTFANYYMHWVRQAPGQGLEWMGIINPSGGITVYAQKFQGRVTMTRDTSTSTVYMELSSLRSEDTAVYYCARGGSKVAALAFDIWGQGTMVTVSS VL: DIQMTQSPSSLSASVGDRVTITCQASQDISNSLNWYQQKPGKAPKLLIYDASNLETGVPSRFSGSRSGTDFTFTISSLQPEDIATYYCQQYNFHPLTFGGGTKVEIK | 1.59 nM | 4.16 nM | no binding (tested: 15 µg/ml (100 nM)) | 0.42 nM | 1.83 nM |  | 
M1593 (antibody, V domains shown, also called 10H10; 10H10 (M1593)) VH: EVQLVQSGAEVKKPGESLRISCKGSGYTFAPYWIEWVRQMPGKGLEWMGDILPGTGFTTYSPSFQGHVTISADKSISTAYLQWSSLKASDTAMYYCARSGYYGNSGFAYWGQGTLVTVSS VL: DIVMTQTPLSLPVTPGEPASISCKSSQSLLSSGNQKNYLTWYLQKPGQSPQLLIYWASTRESGVPDRFSGSGSGTDFTLKISRVEAEDVGVYYCQNDYTYPLTFGQGTKLEIK |  |  | no binding (tested: 15 µg/ml (100 nM)) |  |  |  | 
